± gives the half width of the 95% confidence interval.
What was measured:
[1] = folding stability dG unfold from trypsin proteolysis; higher = more stable
In short: (§1)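 Digests were run with trypsin and chymotrypsin at 11 concentrations in threefold dilutions, plus a no-protease condition, on designed mini-proteins in a PA-tagged cDNA display construct. The mini-proteins were under 80 residues, had no cysteine, and were kept only when AlphaFold2 dimer inter-PAE was above 15. After sequencing, Bayesian fitting of the counts gave K50, from which unfolding free energy was derived against a sequence-predicted unfolded-state K50 and a shared folded-state K50, per protease or combined.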

[2] = folding stability dG unfold from chymotrypsin proteolysis; higher = more stable
In short: as §1

[3] = folding stability dG unfold (combined trypsin and chymotrypsin); higher = more stable
In short: as §1

Row | Sequence | folding stability dG unfold [1] [kcal/mol] | folding stability dG unfold [2] [kcal/mol] | folding stability dG unfold [3] [kcal/mol]
1 | SAGMTPDTTLPDLVVTIYSPDGTSTTYTFPNVTRVTEVDPETGKLTLYSPEGRTITLTLSPDEKVEIVGSAG [r5_762_JUSTAS] | 2.45 ± 0.035 | 3.024 ± 0.027 | 2.84 ± 0.037
2 | SAGMTPEEVAEELREKLGLKEVTIERDPAADTLTITVTLPSPGETKTAVVPASALTPEAIRELLLEVLSSAG [r5_896_JUSTAS] | 2.77 ± 0.071 | 2.4 ± 0.024 | 2.58 ± 0.048
3 | SAGMTSVEKRTLTFETEEEAEKEIKKIADELKKKGYKTEVKIEEVTKEKTEKGDSRYKVTATMKITKKESAG [r5_158_JUSTAS] | 0.681 ± 0.074 | 0.792 ± 0.14 | 0.76 ± 0.17
4 | SAGMTTTLTKTEKFPDGTTVTYTTVTAPDGTPLTATATYDPNNPNKATTTTTDPATGTTTTTTTTITGGSAG [r5_345_JUSTAS] | 1.03 ± 0.065 | 0.674 ± 0.11 | 0.852 ± 0.12
5 | SAGMTTVEVTRTFPADVPVTEEDLELAEKEREEIAAELPESYVVTLASVTYERRPDSWTVTATFTITAPSAG [r5_121_JUSTAS] | 1.47 ± 0.017 | 2.11 ± 0.06 | 1.85 ± 0.045
6 | SAGMTVEELRNLPPGYRVLEVKFDPETGKYTVVVERPDEDGVPHKVTIEVDGLEELEEFFKTGLTELKLSAG [r5_905_TrMRF] | 1.73 ± 0.045 | 0.897 ± 0.1 | 1.35 ± 0.16
7 | SAGMTVKTEVHTTTLPETGLVRTEETVTYPDGSVIRRTGDSNPETGEVTTTVTTPDGTLLATETTTITPSAG [r14_524_JUSTAS] | -0.585 ± 0.072 | 0.426 ± 0.033 | 0.184 ± 0.048
8 | SAGMTVTLPGDKSYTVTVKYTLYDADGKKLGEKTYTKTVTVAPNSTVTINIPNTYPNTVVTEVTVTPESAGG [r19_295_JUSTAS] | 3.91 ± 0.35 | 4.38 ± 0.092 | 4.32 ± 0.13
9 | SAGMTVTLTVSEAEFNALFGPDKDAEAIAAHLESQGYVIKSISTTSSTDPETGGRTLTITLDVEPPLVSAGG [r19_376_JUSTAS] | 3.29 ± 0.09 | 3.603 ± 0.036 | 3.54 ± 0.071
10 | SAGMVAEEARRRASPEELAAEEAPPRPPPPVTVVTVPREVAPEVLAALAAAEDVEVEERGDELVIRVVGSAG [r14_7_JUSTAS] | -0.583 ± 0.39 | 0.559 ± 0.1 | 0.299 ± 0.19
11 | SAGMVIAIKPGEPRILVSGLPPELVRRIAEELGAPDVVPVEPGVPAWTALENHPDPAAFLVIPPELALSAGG [r19_270_TrMRF] | -0.822 ± 0.7 | 0.393 ± 0.12 | 0.0501 ± 0.15
12 | SAGMVIAKVTVKLPNGETKTFVIEAESPEELEEQIIKELEKEYGVSPEEFPIVEIKVEFYDPEKGGLLLSAG [r5_482_TrMRF] | 2.13 ± 0.089 | 2.23 ± 0.033 | 2.2 ± 0.11
13 | SAGMVIKIKASEELRELLKKLGLSEEEVKKLKIKLKVNGKEVEVEVEVDKETGMIYVRFKDTGKTFKLPSAG [r5_545_TrROS_Hall] | 1.61 ± 0.042 | 1.32 ± 0.15 | 1.53 ± 0.13
14 | SAGMVIRLTSPTGSLEITITVEPDGETREAVVKAASGEEVSVIPPSVSVEEIKKRFPDVTASEEPLDLPSAG [r5_314_JUSTAS] | 0.518 ± 0.037 | 0.653 ± 0.038 | 0.628 ± 0.071
15 | SAGMVITETEELPDRTITTVKYSDGKVVIETLEYDPNSNVVTKTVTTIDLSNPSVSKTTTTVEPDPAPSAGG [r19_102_JUSTAS] | 1.15 ± 0.099 | 1.81 ± 0.063 | 1.62 ± 0.092
16 | SAGMVITLERTIPPTVSVSPEEAVAAIKAELEATPGVTVTAVNSVTVTPLPDGTLRVTVDIVVDRPEPSAGG [r19_396_JUSTAS] | 2.23 ± 0.037 | 2.634 ± 0.024 | 2.53 ± 0.06
17 | SAGMVIVIDKKKKKIYIFAPSKEMAEKIAKELNLKDVKVYEKGTSIEELLKKHPDVEKVIVLPAEELKSAGG [r19_270_TrROS_Hall] | 1.45 ± 0.049 | 2.87 ± 0.056 | 2.65 ± 0.27
18 | SAGMVKIEIEVKVEKDEDGRLRVTVRITIYDEKTGEKLKEIEIEVEAPSEEEAERAARKKAEELLKELSAGG [r19_255_TrROS_Hall] | 3.9 ± 0.18 | 2.58 ± 0.087 | 3.25 ± 0.19
19 | SAGMVKTEPDPNSDIVRRTFTVQVPVRIPPGEWRELTIEVPFDEVYGPGGVPVDPVSEEEIEAAIKALLSAG [r5_239_JUSTAS] | 0.966 ± 0.037 | 1.15 ± 0.087 | 1.07 ± 0.096
20 | SAGMVRIELRPRPDGRPIALIDVGAPGGPPRRFEIEVDETETLDDIAERLRAEGFDLPEGIDLEELAGSAGG [r19_263_TrMRF] | 1.08 ± 0.018 | 2.243 ± 0.011 | 1.91 ± 0.044
21 | SAGMVTISVTRPSSGTYVLNISNPLTGETETITLSTADPAAFKATAEAIAAELEAKGYPVKINLTPTAGSAG [r5_815_JUSTAS] | 3.6 ± 0.063 | 3.788 ± 0.014 | 3.73 ± 0.048

Row | Sequence | folding stability dG unfold [1] [kcal/mol] | folding stability dG unfold [2] [kcal/mol] | folding stability dG unfold [3] [kcal/mol]
22 | SAGMVVLTEPGNGRLVVSELPEELAEEIARELGLPDITPVPPGVPAEEARAAHPALTAALEIPPEVLLSAGG [r19_270_JUSTAS] | -0.149 ± 0.16 | 0.0886 ± 0.032 | 0.0846 ± 0.14
23 | SAGMVVVEIRTRDGRTLTVEVEAESEEEAERLARELAEELRRKFPDLEIRVERVEPPEPPEEVVEEEEESAG [r5_950_TrROS_Hall] | 3.23 ± 0.13 | 3.41 ± 0.13 | 3.42 ± 0.21
24 | SAGMYMVTITWEYPNGWTFEFMVFVRGPNPEEAREQVDEAAREIFEQRDHPIKDVKVDVQPMPPGQEISAGG [r19_335_TrROS] | 1.96 ± 0.064 | 3.18 ± 0.054 | 2.84 ± 0.23
25 | SAGMYSETLLEEREYPDGTKEKLYRITKPGGVEELRLVREPLTFDPNNGGPGRKEEVKTAKPDEEIELESAG [r5_122_JUSTAS] | 0.721 ± 0.026 | 1.12 ± 0.14 | 1.03 ± 0.1
26 | SAGNIKIEVEELGPGWYVIKVEIPYDSPEQMLDMIKDIIRDFFGEPVKIDEVEIDPDEGWIEKTIRIPLSAG [r5_810_TrROS] | 1.58 ± 0.067 | 1.64 ± 0.07 | 1.67 ± 0.12
27 | SAGNIQIEPTDGKWRIRITYWMPDPDEITPDTFKNLLRNLGLPIKDIDIEPEPNPNGQRYVTAEIWIPVSAG [r5_922_TrROS] | 2.84 ± 0.043 | 3.34 ± 0.071 | 3.23 ± 0.059
28 | SAGNKVEIMLMVPMKPDPDGEPEIDPQMIREIAKAAGAEGRVEDVDIQPMPDYYMIRVRLPGKEIWIMSAGG [r19_398_TrROS] | 1.46 ± 0.031 | 1.1 ± 0.13 | 1.38 ± 0.11
29 | SAGNPPVTITITINPFRHGDEPMYHVKIKNPGGKEREIPFPPDEFKEQIENEFPNIDEIEVEPMRLPPGSAG [r5_25_TrROS] | 0.207 ± 0.14 | 0.615 ± 0.29 | 0.408 ± 0.49
30 | SAGPAVVIPLPLDPEKWSPEEILEAAIKLAEEAYKAGLPGSVTLLVPVPEKPLLITIDPKTGKITVDPSAGG [r19_204_TrMRF] | 1.49 ± 0.083 | 1.73 ± 0.066 | 1.63 ± 0.072
31 | SAGPEITREFVSYDPETGLRYFEYTLINKKNGKEVKKVKVGYSLYDLASGTERPLPEEELKKRAEEALKSAG [r5_909_JUSTAS] | -0.118 ± 0.13 | 0.433 ± 0.16 | 0.24 ± 0.16
32 | SAGPEPDWVYIKAKVDKGGIKIEWYNPDGPWEFKLPDGEEIYIFIPPGGSPEDMLDEFKNFAKELADKSAGG [r19_170_TrROS] | 1.41 ± 0.22 | 2.1 ± 0.21 | 2.18 ± 0.71
33 | SAGPGHELKIDIERDPGNGIIKLSITYPNGIKYEMLIFRNPDNGKWFIFINIERDPGRIKIDIGIFPLSAGG [r19_394_TrROS] | 3.28 ± 0.083 | 5.05 ± 0.13 | 4.7 ± 0.2
34 | SAGPIKEKTITFPNGMRAKITDIQVGPPPDGEPLIKLKVKVEMWQPKRDPDGKQDGWQPMKMEMTLIIPSAG [r5_476_TrROS] | 2.68 ± 0.18 | 3.91 ± 0.058 | 3.51 ± 0.36
35 | SAGPIKIVVNPDGMLIMVFPHPDGSLMVMIFTFKPNPKNGKRRFEMEMIMIDPDPGDPHVMTMRFEIPPSAG [r5_424_TrROS] | 3.37 ± 0.15 | 4.88 ± 0.09 | 4.08 ± 0.18
36 | SAGPKAEIINKNGKKISFSAKNIKITSYPEKGILTGIIPKKNKKIEIKVDNNKITLIVYDGGKYKEFPISAG [r5_786_TrMRF] | 2.07 ± 0.071 | 3.97 ± 0.22 | 2.21 ± 0.55
37 | SAGPKIELEVDPENPNVARAKVIDPANGEEIDEVEVPVTTLPDGTVLVPAKIKYKGSGKTLELPFTVEGSAG [r5_610_TrMRF] | -0.4 ± 0.44 | 0.133 ± 0.26 | -0.126 ± 0.28
38 | SAGPKTITIWFRSPEWIRKLAKELGFEIKKVKRTGDYWSVEFTREGGKNIEIHIPDDALKELGFDLDDISAG [r5_12_TrROS] | 2.3 ± 0.044 | 2.28 ± 0.089 | 2.25 ± 0.057
39 | SAGPNFKIEIVPNPNGMEPIATIRPPGRTIVIYRNSNGGYHVQRFDPNNGKPVKQFNMPAEEIIKEILSAGG [r19_188_TrROS] | 0.348 ± 0.1 | 0.655 ± 0.34 | 0.551 ± 0.19
40 | SAGPPDWKPIAEFEYNIPMPPGETASEIENEILERIRPQGIKYVTIPVQYDPENGWIQVDVEIWVPPGASAG [r5_924_TrROS] | 0.898 ± 0.03 | 0.849 ± 0.16 | 0.891 ± 0.11
41 | SAGPPEFELVGEFEAEAPGGVPVRVRVIRLPGGDVLVVVTHPDDTVTLGFIPAETGEWHLALSFPADVLSAG [r5_750_TrMRF] | 2.82 ± 0.057 | 2.369 ± 0.014 | 2.58 ± 0.057
42 | SAGPPIWIRAEIEHPRPNPDDGEPQERKREVWIRLPEDLLENGMPVEELAKELASNYPGYKVKIDEILSAGG [r19_110_TrROS] | 0.552 ± 0.026 | -0.915 ± 0.38 | 0.159 ± 0.15

From the supplement of paper PMC12764529
